Experimental findings from paper PMC6877725, “Identification of the periplasmic DNA receptor for natural transformation of Helicobacter pylori” are described below.

Bounds are passed on as bounds.

Data set [1] deals with T1, ComH-His6 (Helicobacter pylori 26695, UniProt O26055 20-479).
T1 sequence: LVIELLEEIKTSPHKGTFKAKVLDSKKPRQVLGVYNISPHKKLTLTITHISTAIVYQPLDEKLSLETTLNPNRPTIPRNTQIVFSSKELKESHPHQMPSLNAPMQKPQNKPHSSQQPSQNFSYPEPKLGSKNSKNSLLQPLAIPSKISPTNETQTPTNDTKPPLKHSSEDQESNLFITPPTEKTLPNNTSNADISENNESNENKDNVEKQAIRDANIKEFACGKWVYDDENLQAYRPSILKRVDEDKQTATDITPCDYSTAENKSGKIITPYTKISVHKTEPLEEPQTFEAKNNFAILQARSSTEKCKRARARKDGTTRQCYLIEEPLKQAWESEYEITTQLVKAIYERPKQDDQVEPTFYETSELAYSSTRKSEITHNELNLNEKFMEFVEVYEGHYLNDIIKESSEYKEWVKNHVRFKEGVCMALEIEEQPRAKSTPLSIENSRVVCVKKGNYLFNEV
Briefly: MST. The note with it: 10 mM MgCl2, 150 mM NaCl; EMSA: 10 mM Tris-HCl pH 7.5, 50 mM KCl, ~100 mM NaCl, 0.1 mM MgCl2, 1 mM DTT, 0.1 µg/µl BSA, on ice 30 min; MST and SV-AUC (20 °C): 50 mM Tris-HCl pH 7.4 ….

In data set [2] the target is T2, ComH-NTD-His6 (Helicobacter pylori 26695, UniProt O26055 20-169).
T2 sequence: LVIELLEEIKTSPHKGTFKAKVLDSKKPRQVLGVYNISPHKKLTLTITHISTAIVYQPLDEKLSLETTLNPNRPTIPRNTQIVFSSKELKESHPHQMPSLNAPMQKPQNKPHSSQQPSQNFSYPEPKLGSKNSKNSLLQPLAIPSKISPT
As to the kind of experiment: MST. Particulars: 10 mM MgCl2, 150 mM NaCl; EMSA: 10 mM Tris-HCl pH 7.5, 50 mM KCl, ~100 mM NaCl, 0.1 mM MgCl2, 1 mM DTT, 0.1 µg/µl BSA, on ice 30 min; MST and SV-AUC (20 °C): 50 mM Tris-HCl pH 7.4 ….

Data set [3] concerns the target T3, ComH-CTD-His6 (Helicobacter pylori 26695, UniProt O26055 170-479).
T3 sequence: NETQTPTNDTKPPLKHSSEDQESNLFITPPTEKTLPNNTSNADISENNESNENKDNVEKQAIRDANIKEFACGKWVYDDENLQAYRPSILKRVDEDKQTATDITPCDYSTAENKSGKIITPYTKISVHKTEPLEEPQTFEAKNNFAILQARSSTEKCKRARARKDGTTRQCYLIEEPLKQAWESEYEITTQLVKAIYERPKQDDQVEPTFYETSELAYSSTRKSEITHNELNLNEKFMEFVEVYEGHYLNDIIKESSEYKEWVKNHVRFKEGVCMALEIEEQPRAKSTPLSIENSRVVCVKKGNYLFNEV
Briefly: MST. The note with it: 10 mM MgCl2, 150 mM NaCl; EMSA: 10 mM Tris-HCl pH 7.5, 50 mM KCl, ~100 mM NaCl, 0.1 mM MgCl2, 1 mM DTT, 0.1 µg/µl BSA, on ice 30 min; MST and SV-AUC (20 °C): 50 mM Tris-HCl pH 7.4 ….

Data set [4] has as its target T1, ComH-His6. As to the kind of experiment: SV-AUC. Particulars: EMSA: 10 mM Tris-HCl pH 7.5, 50 mM KCl, ~100 mM NaCl, 0.1 mM MgCl2, 1 mM DTT, 0.1 µg/µl BSA, on ice 30 min; MST and SV-AUC (20 °C): 50 mM Tris-HCl pH 7.4 ….
Data set [5] concerns the target T1, ComH-His6. As to the kind of experiment: SV-AUC. The note with it: EMSA: 10 mM Tris-HCl pH 7.5, 50 mM KCl, ~100 mM NaCl, 0.1 mM MgCl2, 1 mM DTT, 0.1 µg/µl BSA, on ice 30 min; MST and SV-AUC (20 °C): 50 mM Tris-HCl pH 7.4 …. This is another data set of the same source.
For data set [6], the target named is T1, ComH-His6. As to the kind of experiment: EMSA; 0.5-2 µM protein; EMSA: 10 mM Tris-HCl pH 7.5, 50 mM KCl, ~100 mM NaCl, 0.1 mM MgCl2, 1 mM DTT, 0.1 µg/µl BSA, on ice 30 min; MST and SV-AUC (20 °C): 50 mM Tris-HCl pH 7.4, 150 mM NaCl, 10 mM MgCl2, 0.05% Tween20; SPR: PBS + 0.005% Tween20, 25 °C. The note with it: protein: recombinant, tags: C-terminal His6.
Data set [7] has as its target T3, ComH-CTD-His6. The description is as above. The note with it: protein: recombinant; tags: C-terminal His6; label: 5'-Cy5 on strand 1; blunt.
Data set [8] addresses T2, ComH-NTD-His6. As to the kind of experiment: EMSA; basically no binding, 0.5-2 µM protein; EMSA: 10 mM Tris-HCl pH 7.5, 50 mM KCl, ~100 mM NaCl, 0.1 mM MgCl2, 1 mM DTT, 0.1 µg/µl BSA, on ice 30 min; MST and SV-AUC (20 °C): 50 mM Tris-HCl pH 7.4, 150 mM NaCl, 10 mM MgCl2, 0.05% Tween20; SPR: PBS + 0.005% Tween20, 25 °C. The note with it: protein: recombinant, tags: C-terminal His6.

The target in data set [9] is T3, ComH-CTD-His6. As to the kind of experiment: EMSA; essentially no affinity, 0.5-2 µM protein; EMSA: 10 mM Tris-HCl pH 7.5, 50 mM KCl, ~100 mM NaCl, 0.1 mM MgCl2, 1 mM DTT, 0.1 µg/µl BSA, on ice 30 min; MST and SV-AUC (20 °C): 50 mM Tris-HCl pH 7.4, 150 mM NaCl, 10 mM MgCl2, 0.05% Tween20; SPR: PBS + 0.005% Tween20, 25 °C. Particulars: protein: recombinant; tags: C-terminal His6; label: 5'-Cy5.

Data set [10] addresses T1, ComH-His6. As to the kind of experiment: SPR; no satisfactory fit; EMSA: 10 mM Tris-HCl pH 7.5, 50 mM KCl, ~100 mM NaCl, 0.1 mM MgCl2, 1 mM DTT, 0.1 µg/µl BSA, on ice 30 min; MST and SV-AUC (20 °C): 50 mM Tris-HCl pH 7.4, 150 mM NaCl, 10 mM MgCl2, 0.05% Tween20; SPR: PBS + 0.005% Tween20, 25 °C. The note with it: protein: recombinant; tags: C-terminal His6; label: 5'-biotin on strand 1; blunt.

Where [11] appears, read: label: 5'-Cy5 on strand 1, blunt.

On to 18 bp dsDNA-FAM, for which the dissociation constant Kd with ComH-His6 [1] was 50 nM; with ComH-NTD-His6 [2], greater than 40000 nM; with ComH-CTD-His6 [3], 3400 nM; with ComH-His6 [4] it was 100 nM; in the data set with ComH-His6 [5], 300 nM.

B1: 18 bp dsDNA (Cy5-PNK1 + cPNK1) (dsDNA)
DNA 1: TAGCATCGATCAGTCCTC
DNA 2: GAGGACTGATCGATGCTA
Regarding B1, the binding result in the data set with ComH-His6 [6] (setting [11]) was “binds”; with ComH-CTD-His6 [7] it was “binds”; with ComH-NTD-His6 [8] (setting [11]), “no binding”.

As to TAGCATCGATCAGTCCTC (ssDNA) [18-mer ssDNA (Cy5-PNK1)], the binding result in the data set with ComH-CTD-His6 [9], with ComH-His6 [6] (label: 5'-Cy5) and with ComH-NTD-His6 [8] (label: 5'-Cy5) was “no binding” throughout.

B2: 50 bp dsDNA (Op249 + Op250) (dsDNA)
DNA 1: GTAGTGCTGTAGGAGAATATACGGGCTGCTCGTGTTGACAAGTACTGATG
DNA 2: CATCAGTACTTGTCAACACGAGCAGCCCGTATATTCTCCTACAGCACTAC
As to B2, the binding result with ComH-His6 [10] was “binds”.
